Reference: PMC2686680, “Chibby forms a homodimer through a heptad repeat of leucine residues in its C-terminal coiled-coil motif” (BMC Molecular Biology, 2009)

B1: Cby wild type fused to the N-terminal (RN) or C-terminal (RC) portion of synthetic Renilla luciferase (hRluc) [human] / itself (parent complex)
chain: MPFFGNTFSPKKTPPRKSASLSNLHSLDRSTREVELGLEYGSPTMNLAGQSLKFENGQWIAETGVSGGVDRREVQRLRRRNQQLEEENNLLRLKVDILLDMLSESTAESHLMEKELDELRISRKRK

Variants of: B1
Assay: split hRluc protein-fragment-assisted complementation assay; HEK293T cells; expression plasmids 400 ng each; triplicate, means ± SD; read off a plot

| Variant | response |
| --- | --- |
| MPFFGNTFSPKKTPPRKSASLSNLHSLDRSTREVELGLEYGSPTMNLAGQSLKFENGQWIAETGVSGGVDRREVQRARRRNQQAEEENNLARLKVDIALDMLSESTAESHLMEKELDELRISRKRK [chain 1 L77A, chain 1 L84A, chain 1 L91A, chain 1 L98A] | ~0.5 |
| MPFFGNTFSPKKTPPRKSASLSNLHSLDRSTREVELGLEYGSPTMNLAGQSLKFENGQWIAETGVSGGVDRREVQRLRRRNQQLEEENNLARLKVDILLDMLSESTAESHLMEKELDELRISRKRK [chain 1 L91A] | ~4 |
| MPFFGNTFSPKKTPPRKSASLSNLHSLDRSTREVELGLEYGSPTMNLAGQSLKFENGQWIAETGVSGGVDRREVQRLRRRNQQLEEENNLLRLKVDIALDMLSESTAESHLMEKELDELRISRKRK [chain 1 L98A] | ~5.4 |
| MPFFGNTFSPKKTPPRKSASLSNLHSLDRSTREVELGLEYGSPTMNLAGQSLKFENGQWIAETGVSGGVDRREVQRLRRRNQQAEEENNLLRLKVDILLDMLSESTAESHLMEKELDELRISRKRK [chain 1 L84A] | ~1.9 |
| MPFFGNTFSPKKTPPRKSASLSNLHSLDRSTREVELGLEYGSPTMNLAGQSLKFENGQWIAETGVSGGVDRREVQRLRRRNQQLEEENNLARLKVDIALDMLSESTAESHLMEKELDELRISRKRK [chain 1 L91A, chain 1 L98A] | ~0.7 |
| MPFFGNTFSPKKTPPRKSASLSNLHSLDRSTREVELGLEYGSPTMNLAGQSLKFENGQWIAETGVSGGVDRREVQRLRRRNQQAEEENNLLRLKVDIALDMLSESTAESHLMEKELDELRISRKRK [chain 1 L84A, chain 1 L98A] | ~0.28 |
| MPFFGNTFSPKKTPPRKSASLSNLHSLDRSTREVELGLEYGSPTMNLAGQSLKFENGQWIAETGVSGGVDRREVQRARRRNQQLEEENNLARLKVDILLDMLSESTAESHLMEKELDELRISRKRK [chain 1 L77A, chain 1 L91A] | ~0.55 |
| MPFFGNTFSPKKTPPRKSASLSNLHSLDRSTREVELGLEYGSPTMNLAGQSLKFENGQWIAETGVSGGVDRREVQRARRRNQQLEEENNLLRLKVDILLDMLSESTAESHLMEKELDELRISRKRK [chain 1 L77A] | ~3.2 |
| MPFFGNTFSPKKTPPRKSASLSNLHSLDRSTREVELGLEYGSPTMNLAGQSLKFENGQWIAETGVSGGVDRREVQRARRRNQQAEEENNLLRLKVDILLDMLSESTAESHLMEKELDELRISRKRK [chain 1 L77A, chain 1 L84A] | ~0.18 |
